Assay results as given in paper PMC8897273 (Journal of molecular biology, 2022).
Where two headings read alike, the source gives them in different places.

Experiments:
[1] = biological target: human polyadenylate binding protein 1 (PABP1) (human, UniProt P11940 1-636); experiment: native gel or EMSA
PABP1 [2] = biological target: T1, PABP1 (Homo sapiens, UniProt P11940 1-636); experiment: EMSA
PABP1 [3] = biological target: T1, PABP1; experiment: EMSA; remark: listed apart in the source

T1 sequence (P11940 whole entry): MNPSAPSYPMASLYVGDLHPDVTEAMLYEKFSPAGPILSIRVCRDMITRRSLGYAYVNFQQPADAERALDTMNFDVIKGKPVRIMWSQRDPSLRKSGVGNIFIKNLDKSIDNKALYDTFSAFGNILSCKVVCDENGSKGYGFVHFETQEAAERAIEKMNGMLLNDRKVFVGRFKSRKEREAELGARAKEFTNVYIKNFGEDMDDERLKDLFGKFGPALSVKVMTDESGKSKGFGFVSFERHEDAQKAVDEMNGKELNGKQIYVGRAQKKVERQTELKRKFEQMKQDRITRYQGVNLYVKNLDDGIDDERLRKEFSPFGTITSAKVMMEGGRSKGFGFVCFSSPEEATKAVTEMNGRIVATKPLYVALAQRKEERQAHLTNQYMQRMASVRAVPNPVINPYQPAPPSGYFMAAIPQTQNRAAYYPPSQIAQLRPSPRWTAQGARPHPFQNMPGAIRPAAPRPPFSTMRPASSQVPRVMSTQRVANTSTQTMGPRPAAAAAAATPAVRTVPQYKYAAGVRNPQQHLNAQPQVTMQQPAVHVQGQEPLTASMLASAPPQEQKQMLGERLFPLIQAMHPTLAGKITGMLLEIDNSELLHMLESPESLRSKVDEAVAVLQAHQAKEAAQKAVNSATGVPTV
Sequence of human polyadenylate binding protein 1 (PABP1) (P11940 whole entry): as above

B1: human eIF4G1 fragment (88–653) (domain or fragment, UniProt Q04637-1 88-653, looked up)
chain: MMIPSQISYPASQGAYYIPGQGRSTYVVPTQQYPVQPGAPGFYPGASPTEFGTYAGAYYPAQGVQQFPTGVAPTPVLMNQPPQIAPKRERKTIRIRDPNQGGKDITEEIMSGARTASTPTPPQTGGGLEPQANGETPQVAVIVRPDDRSQGAIIADRPGLPGPEHSPSESQPSSPSPTPSPSPVLEPGSEPNLAVLSIPGDTMTTIQMSVEESTPISRETGEPYRLSPEPTPLAEPILEVEVTLSKPVPESEFSSSPLQAPTPLASHTVEIHEPNGMVPSEDLEPEVESSPELAPPPACPSESPVPIAPTAQPEELLNGAPSPPAVDLSPVSEPEEQAKEVTASMAPPTIPSATPATAPSATSPAQEEEMEEEEEEEEGEAGEAGEAESEKGGEELLPPESTPIPANLSQNLEAAAATQVAVSVPKRRRKIKELNKKEAVGDLLDAFKEANPAVPEVENQPPAGSNPGPESEGSGVPPRPEEADETWDSKEDKIHNAENIQPGEQKYEYKSDQWKPLNLEEKKRYDREFLLGFQFIFASMQKPEGLPHISDVVLDKANKTPLRPLDT
binding result [1]: binds

B2: ssCR1 (ssRNA)
RNA: GCUAUCCAGAUUCUGAUU
binding result (PABP1 [2]): no binding

B3: Poly(A)18 (ssRNA)
RNA: AAAAAAAAAAAAAAAAAA
binding result (PABP1 [3]): binds
